From patent US20110171259A1 (priority 2008, published 2011)
Entries after “also recorded” stand apart in the source; their conditions may differ. Ends that are not written are not given here.

Tests used:
[1] = tested on: SFV (A/New Calcdonia/20/99); assay: Influenza-specific serum IgG ELISA after nasal instillation of SFV with Lip peptide MC58; format: in vivo, C57BL/6 mice; settings: 3 μg SFV + 10 μg peptide nasally Day 0 and Day 14, sera Day 28, versus SFV alone; FIG. 6
Method: On day 28, mice were euthanized and exsanguinated by cardiac puncture. Influenza-specific IgG levels were measured in sera collected at Day 28 by ELISA using (A/New Calcdonia/20/99) SFV as solid-phase antigen.

human TLR 1 and 2 = human TLR 1 and 2 (Homo sapiens, UniProt O60603+Q15399); assay: NF-κB SEAP reporter assay in HEK293 cells expressing TLR 1 and 2; settings: TLR1/2-expressing HEK293 cells; 0, 0.01, 0.1, 1.0 μg; 5 hours exposure; FIG. 3; listed as Lip peptide lipidated MC58
Chain of human TLR 1 and 2 (O60603 21-784): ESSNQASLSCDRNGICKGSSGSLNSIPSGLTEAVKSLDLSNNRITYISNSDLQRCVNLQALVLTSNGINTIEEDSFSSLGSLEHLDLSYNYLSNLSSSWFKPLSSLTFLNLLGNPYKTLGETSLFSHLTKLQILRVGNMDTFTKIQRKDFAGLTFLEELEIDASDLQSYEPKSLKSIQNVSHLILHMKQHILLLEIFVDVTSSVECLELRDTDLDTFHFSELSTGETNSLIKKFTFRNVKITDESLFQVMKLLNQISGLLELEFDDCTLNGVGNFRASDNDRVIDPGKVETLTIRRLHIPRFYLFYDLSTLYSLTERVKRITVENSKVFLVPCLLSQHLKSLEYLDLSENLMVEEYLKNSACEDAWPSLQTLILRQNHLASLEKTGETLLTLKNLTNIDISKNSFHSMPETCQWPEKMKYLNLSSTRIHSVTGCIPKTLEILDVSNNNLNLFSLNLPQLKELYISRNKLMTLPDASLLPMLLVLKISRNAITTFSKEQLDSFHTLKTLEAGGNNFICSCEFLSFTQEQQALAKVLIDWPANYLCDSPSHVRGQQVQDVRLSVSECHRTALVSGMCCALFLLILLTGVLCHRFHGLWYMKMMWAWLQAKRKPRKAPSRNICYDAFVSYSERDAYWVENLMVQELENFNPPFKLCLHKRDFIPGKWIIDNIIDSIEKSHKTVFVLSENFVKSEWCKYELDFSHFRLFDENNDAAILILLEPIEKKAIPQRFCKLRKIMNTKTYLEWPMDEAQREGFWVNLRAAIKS
Chain of human TLR 1 and 2 (Q15399 25-786): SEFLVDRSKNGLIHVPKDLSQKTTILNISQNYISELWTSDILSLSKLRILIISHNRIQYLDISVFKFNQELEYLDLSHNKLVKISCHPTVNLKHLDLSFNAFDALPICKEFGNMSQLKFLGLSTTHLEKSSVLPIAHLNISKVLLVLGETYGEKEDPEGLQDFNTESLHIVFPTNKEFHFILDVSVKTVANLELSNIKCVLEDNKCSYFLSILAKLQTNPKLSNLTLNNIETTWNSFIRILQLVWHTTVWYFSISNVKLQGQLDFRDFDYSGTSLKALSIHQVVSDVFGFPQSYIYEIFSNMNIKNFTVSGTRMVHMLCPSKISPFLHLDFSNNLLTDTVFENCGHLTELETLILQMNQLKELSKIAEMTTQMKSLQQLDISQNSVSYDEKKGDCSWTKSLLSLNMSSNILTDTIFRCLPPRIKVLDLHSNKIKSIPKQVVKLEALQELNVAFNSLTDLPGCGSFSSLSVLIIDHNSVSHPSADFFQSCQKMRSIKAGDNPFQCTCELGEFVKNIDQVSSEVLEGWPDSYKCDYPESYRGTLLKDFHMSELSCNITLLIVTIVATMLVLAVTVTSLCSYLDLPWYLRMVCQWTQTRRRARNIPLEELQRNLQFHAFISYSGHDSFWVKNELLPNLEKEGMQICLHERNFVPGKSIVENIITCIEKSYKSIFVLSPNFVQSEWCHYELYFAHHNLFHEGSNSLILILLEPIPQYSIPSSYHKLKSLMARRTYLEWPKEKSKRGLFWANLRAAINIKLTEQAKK

Toll-Like Receptor 2 = target: T1, Toll-Like Receptor 2 (Homo sapiens, UniProt O60603+Q15399); settings: Fisette et al., 2003; cited from earlier work
T1 construct: host or cells: epithelial cells
T1 sequence (O60603 21-784, species assumed): as the sequence (O60603 21-784) above
T1 sequence (Q15399 25-786, species assumed): as the sequence (Q15399 25-786) above

split-flu vaccine (SFV) = format: in vivo, C57BL/6 mice; settings: 3 μg SFV + 0.35 μg or 1.0 μg Lip protein nasally Day 0 and Day 14, Day 28 sera, versus SFV alone; batch 1 and batch 2; FIG. 7 and 8
TLR4/MD2/CD14 = TLR4/MD2/CD14 (Homo sapiens, UniProt O00206); assay: NF-κB SEAP reporter assay in HEK293 cells expressing TLR4/MD2/CD14; settings: FIG. 5
Chain of TLR4/MD2/CD14 (O00206 24-839): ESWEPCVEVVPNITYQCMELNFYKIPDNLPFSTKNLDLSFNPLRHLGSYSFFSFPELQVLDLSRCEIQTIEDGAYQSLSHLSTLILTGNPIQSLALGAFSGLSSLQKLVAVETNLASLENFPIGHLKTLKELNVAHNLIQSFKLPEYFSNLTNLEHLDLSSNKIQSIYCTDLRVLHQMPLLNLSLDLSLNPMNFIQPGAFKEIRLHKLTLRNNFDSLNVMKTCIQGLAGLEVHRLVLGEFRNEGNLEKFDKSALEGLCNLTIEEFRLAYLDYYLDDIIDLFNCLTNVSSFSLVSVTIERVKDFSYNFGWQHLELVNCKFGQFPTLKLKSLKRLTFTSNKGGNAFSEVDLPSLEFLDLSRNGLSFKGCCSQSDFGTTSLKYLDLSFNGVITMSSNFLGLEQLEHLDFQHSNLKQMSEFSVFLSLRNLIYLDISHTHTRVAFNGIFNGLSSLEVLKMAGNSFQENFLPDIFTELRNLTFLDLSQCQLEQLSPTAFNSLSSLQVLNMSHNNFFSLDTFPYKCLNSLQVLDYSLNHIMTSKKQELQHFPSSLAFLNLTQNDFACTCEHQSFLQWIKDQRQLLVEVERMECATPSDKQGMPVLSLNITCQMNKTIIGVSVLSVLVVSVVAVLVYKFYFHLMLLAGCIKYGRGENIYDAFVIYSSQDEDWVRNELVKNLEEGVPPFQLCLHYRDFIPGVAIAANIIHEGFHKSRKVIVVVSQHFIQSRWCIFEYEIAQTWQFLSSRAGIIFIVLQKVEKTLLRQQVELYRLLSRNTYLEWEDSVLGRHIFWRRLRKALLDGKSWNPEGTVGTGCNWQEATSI
Chain of TLR4/MD2/CD14 (Q9Y6Y9 19-160 partner): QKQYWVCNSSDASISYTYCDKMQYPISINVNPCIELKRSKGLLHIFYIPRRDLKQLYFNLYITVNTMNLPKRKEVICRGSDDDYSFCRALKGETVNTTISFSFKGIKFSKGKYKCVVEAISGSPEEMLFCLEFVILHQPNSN

Pam3Cys-GGEKAAEAPAAEAP [Lip peptide MC58]
serum influenza-specific IgG levels [1]: statistically significant higher levels | NF-κB activation (relative 650 nm optic density, SEAP) (human TLR 1 and 2): mainly TLR1 and 2 agonists

Pam3Cys-GGEKAAEAPAAEAS [Lip peptide F62, triacylated Lip peptide from N. gonorrhoeae F62]
production of inflammatory cytokines (Toll-Like Receptor 2): can stimulate

B1: Lip protein: Lip protein purified from Neisseria meningitidis (strain 8047) Proteosome preparation (protein)
chain: MKAYLALISAAVIGLAACSQEPAAPAAEATPAAEAPASEAPAAEAAPADAAEAPAAGNCAATVESNDNMQFNTKDIQVSKACKEFTITLKHTGTQPKTSMGHNIVIGKTEDMDGIFKDGVGAADTDYVKPDDARVVAHTKLIGGGEESSLTLDPAKLADGDYKFACTFPGHGALMNGKITLVD
modifications: N.meningitidis
notes: Lip protein purified from Neisseria meningitidis (strain 8047) Proteosome preparation
antigen-specific IgG levels in sera (split-flu vaccine (SFV)): statistically significant (p<0.001 and p<0.01) higher levels; also recorded: significantly higher than the SFV alone | NF-κB activation (TLR4/MD2/CD14): no significant increase
